Test results from article PMC10046460, “Phase I Trial of [^99mTc]Tc-maSSS-PEG2-RM26, a Bombesin Analogue Antagonistic to Gastrin-Releasing Peptide Receptors (GRPRs), for SPECT Imaging of GRPR Expression in Malignant Tumors” (Cancers, 2023).
Square brackets hold non-standard residues; d marks the D form. Peptide text beside a SMILES is read from it. * marks the point of attachment. Sta = CC(C)C[C@H](N)[C@@H](O)CC(=O)O; Mercaptoacetyl = O=C(CS)*; AEEA = NCCOCCOCC(=O)O

Tests used:
[1] = molecular target: T1, gastrin-releasing peptide receptor (GRPR) (Homo sapiens, UniProt P30550); test: SPECT/CT imaging of tumor and LN metastasis uptake in BCa patients; type: in vivo; settings: for SUVmax, tumor (T) / SUVmax, single LN metastasis (LNM): 2 h post administration, 40 µg iv; for median activity accumulation (SUVmax): 2 h after injection, Me [Q1–Q3]
T1 construct: from tissue; host or cells: primary prostate cancer, primary breast cancer and axillary lymph-node metastases in living patients
T1 sequence (P30550 whole entry): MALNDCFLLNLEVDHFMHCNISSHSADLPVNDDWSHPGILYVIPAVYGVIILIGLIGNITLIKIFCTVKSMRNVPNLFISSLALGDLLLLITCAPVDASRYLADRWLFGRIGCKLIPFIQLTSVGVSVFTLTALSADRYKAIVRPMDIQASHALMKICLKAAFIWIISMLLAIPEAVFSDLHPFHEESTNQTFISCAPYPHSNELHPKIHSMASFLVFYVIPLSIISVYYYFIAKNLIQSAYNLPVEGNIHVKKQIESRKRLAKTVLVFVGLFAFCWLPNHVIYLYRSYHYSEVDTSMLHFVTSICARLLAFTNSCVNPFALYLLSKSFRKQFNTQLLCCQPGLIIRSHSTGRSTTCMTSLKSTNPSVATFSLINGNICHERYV
Protocol: (§1) A single-center diagnostic phase I open-label exploratory study (ClinicalTrials.gov ID NCT04746638) was conducted at the Cancer Research Institute, Tomsk National Research Medical Center of the Russian Academy of Sciences, and the initial protocol was approved by the Institute’s Scientific Council and Board of Medical Ethics (protocol 14, approved 21 December 2020). Patients (18–70 y) with clinically and radiologically diagnosed (with histological verification) PCa or BCa were included in this study after providing written informed consent. Criteria for inclusion were: the ability to undergo planned diagnostic investigations; patient’s hematological, liver, and renal function test results within the normal limits; and a negative pregnancy test for BCa patients. The exclusion criteria included contraindications to surgical intervention due to severe concomitant pathology; a second malignancy (non-breast or non-prostate); activity/history of autoimmune disease, hepatitis B or C, HIV, or infectious diseases within the preceding 3 months; participation in other clinical studies; and ongoing toxicity over grade 2 from previous standards or investigational therapies. Additionally, for PCa patients, exclusion criteria were androgen deprivation therapy over 3 months, and for BCa patients, exclusion criteria were HER2-positive or non-luminal cancer, in situ T0 and T3-4 tumors, the presence of distant metastases, and history of chemo- and/or hormone-therapy. Six male PCa and seven female BCa patients were included in the study (Figure 1 and Figure 2).
(§2) Patients were injected with [^99mTc]Tc-maSSS-PEG2-RM26 (40 µg of maSSS-PEG2-RM26 labeled with 640 ± 165 MBq for PCa and 695 ± 120 MBq for BCa patients per injection) as a single intravenous bolus. Imaging was performed using a hybrid system (Symbia Intevo T16), equipped with a dual-head gamma camera and an integrated 16-slice CT scanner. For imaging, a low-energy high-resolution collimator was used. Patients underwent whole-body planar images (anterior and posterior, with a of scan speed 12 cm/min in a 1024 × 256 pixel matrix) and SPECT-CT acquisition (32 projections, 30 s each, in a 128 × 128 pixel matrix) and a low-dose CT (140 kVp, 20 mAs/slice in a 512 × 512 pixel matrix) were performed 2, 4, 6, and 24 h after injection. The images were transferred to a Syngo.via (Siemens) workstation for analysis.

[2] = parameters: species or system human; settings: in vivo
Protocol: (§3) The geometric means of counts in the regions of interest (ROIs) drawn over organs and the whole body for anterior and posterior projections were calculated for every time point. An ROI for the heart was used to estimate activity concentrations in the blood. Quantification was performed as described previously. Absorbed doses for individual organs, effective doses, and effective dose equivalents were calculated in OLINDA/EXM 1.1 (adult male phantom for PCa and adult female phantom for BCa) using average residence times derived from activity distributions over time fitted to a single exponential using Prism 9.2.0 (GraphPad Software, LLC, Boston, MA, USA).

clinical = settings: human, in vivo; for tissue uptake dose at 2 h / tissue uptake dose at 4 h / tissue uptake dose at 6 h / tissue uptake dose at 24 h: iv, 40 ug, total radioactivity, Distribution, SD
Protocol: as §2, §3

[3] = molecular target: T1, gastrin-releasing peptide receptor (GRPR); test: SPECT/CT imaging of tumor uptake in PCa patients; type: in vivo; settings: for SUVmax: prostate tumor, 40 µg iv; for SUVmax / Ratio SUVmax in Tumor to Background: 2 h post administration
Protocol: as §1, §2

## CC(C)C[C@H](NC(=O)C[C@H](O)[C@H](CC(C)C)NC(=O)[C@H](Cc1c[nH]cn1)NC(=O)CNC(=O)[C@@H](NC(=O)[C@H](C)NC(=O)[C@H](Cc1c[nH]c2ccccc12)NC(=O)[C@H](CCC(N)=O)NC(=O)[C@@H](Cc1ccccc1)NC(=O)COCCOCCNC(=O)[C@H](CO)NC(=O)[C@H](CO)NC(=O)[C@H](CO)NC(=O)CS)C(C)C)C(N)=O [[^99mTc]Tc-maSSS-PEG2-RM26, metal not drawn] (Mercaptoacetyl-SSS[AEEA][dF]QWAVGH[Sta]L-NH2)
[1]; BCa patient B1, SPECT/CT
  SUVmax, tumor (T): T: 1.41 (2.8 × 2.2)
[1]; BCa patient B2, SPECT/CT
  SUVmax, single LN metastasis (LNM): 1.8
  SUVmax, tumor (T): 1.75
[1]; BCa patient B3, SPECT/CT
  SUVmax, single LN metastasis (LNM): 1.8
  SUVmax, tumor (T): 0.87
[1]; BCa patient B4, SPECT/CT
  SUVmax, single LN metastasis (LNM): 0.58
  SUVmax, tumor (T): 0.57
[1]; BCa patient B5, SPECT/CT
  SUVmax, single LN metastasis (LNM): 1.8
  SUVmax, tumor (T): 0.87
[1]; BCa patient B6, SPECT/CT
  SUVmax, tumor (T): T: 0.43 (1.5 × 1.5)
[1]; BCa patient B7, SPECT/CT
  SUVmax, tumor (T): T: 0.50 (1.5 × 1.4)
[1]; BCa patients, SPECT/CT
  patients with high uptake in axillary LN: four BCa patients
  patients with increased accumulation in the tumor: seven out of seven
[1]; LN metastases in BCa patients
  median activity accumulation (SUVmax): 1.8 [0.58–1.8]
[1]; breast tumors
  median activity accumulation (SUVmax): 0.87 [0.43–1.75]
[2]
  radionuclide-associated dose burden per patient: 3-6 mSv/study
[2]; iv
  Absorbed dose, Ovaries: 0.018 ± 0.008
  Absorbed dose, Testes: 0.004 ± 0.005
  Absorbed dose, Uterus: 0.020 ± 0.008
clinical; female, Gall bladder
  tissue uptake dose at 2 h: 5 ± 5 %ID
  tissue uptake dose at 4 h: 5 ± 4 %ID
  tissue uptake dose at 6 h: 4 ± 3 %ID
  tissue uptake dose at 24 h: 0.3 ± 0.1 %ID
clinical; female, Jejunum
  tissue uptake dose at 2 h: 21 ± 9 %ID
  tissue uptake dose at 4 h: 25 ± 17 %ID
  tissue uptake dose at 6 h: 13 ± 10 %ID
  tissue uptake dose at 24 h: 3 ± 2 %ID
clinical; female, Kidney
  tissue uptake dose at 2 h: 5 ± 3 %ID
  tissue uptake dose at 4 h: 3 ± 3 %ID
  tissue uptake dose at 6 h: 3 ± 3 %ID
  tissue uptake dose at 24 h: 5 ± 5 %ID
clinical; female, Liver
  tissue uptake dose at 2 h: 6 ± 2 %ID
  tissue uptake dose at 4 h: 3 ± 1 %ID
  tissue uptake dose at 6 h: 3 ± 2 %ID
  tissue uptake dose at 24 h: 2 ± 2 %ID
clinical; female, Lower colon
  tissue uptake dose at 2 h: 1.4 ± 0.8 %ID
  tissue uptake dose at 4 h: 1 ± 0.9 %ID
  tissue uptake dose at 6 h: 0.8 ± 0.7 %ID
  tissue uptake dose at 24 h: 20 ± 15 %ID
clinical; female, Upper colon
  tissue uptake dose at 2 h: 1.1 ± 0.6 %ID
  tissue uptake dose at 4 h: 6 ± 12 %ID
  tissue uptake dose at 6 h: 19 ± 17 %ID
  tissue uptake dose at 24 h: 15 ± 10 %ID
clinical; female, Urinary bladder
  tissue uptake dose at 2 h: 4 ± 7 %ID
  tissue uptake dose at 4 h: 1 ± 2 %ID
  tissue uptake dose at 6 h: 0.3 ± 0.3 %ID
  tissue uptake dose at 24 h: 0.2 ± 0.2 %ID
clinical
  activity in liver and kidneys: over 3 % of injected activity
  injected activity excreted via bile: Up to 40%
  route of excretion: predominantly hepatobiliary excretion
clinical; male, Gall bladder
  tissue uptake dose at 2 h: 2 ± 2 %ID
  tissue uptake dose at 4 h: 2 ± 2 %ID
  tissue uptake dose at 6 h: 2 ± 2 %ID
  tissue uptake dose at 24 h: 2.2 ± 0.3 %ID
clinical; male, Jejunum
  tissue uptake dose at 2 h: 12 ± 12 %ID
  tissue uptake dose at 4 h: 9 ± 9 %ID
  tissue uptake dose at 6 h: 9 ± 19 %ID
  tissue uptake dose at 24 h: 10 ± 1 %ID
clinical; male, Kidney
  tissue uptake dose at 2 h: 2.9 ± 0.9 %ID
  tissue uptake dose at 4 h: 3 ± 3 %ID
  tissue uptake dose at 6 h: 3 ± 1 %ID
  tissue uptake dose at 24 h: 2.4 ± 0.9 %ID
clinical; male, Liver
  tissue uptake dose at 2 h: 4 ± 2 %ID
  tissue uptake dose at 4 h: 2.2 ± 0.8 %ID
  tissue uptake dose at 6 h: 1.8 ± 0.6 %ID
  tissue uptake dose at 24 h: 2 ± 1 %ID
clinical; male, Lower colon
  tissue uptake dose at 2 h: 0.6 ± 0.5 %ID
  tissue uptake dose at 4 h: 0.2 ± 0.2 %ID
  tissue uptake dose at 6 h: 0.5 ± 0.4 %ID
  tissue uptake dose at 24 h: 0.4 ± 0.2 %ID
clinical; male, Upper colon
  tissue uptake dose at 2 h: 1.1 ± 1 %ID
  tissue uptake dose at 4 h: 8 ± 3 %ID
  tissue uptake dose at 6 h: 20 ± 13 %ID
  tissue uptake dose at 24 h: 7 ± 8 %ID
clinical; male, Urinary bladder
  tissue uptake dose at 2 h: 4 ± 6 %ID
  tissue uptake dose at 4 h: 2 ± 1 %ID
  tissue uptake dose at 6 h: 0.6 ± 0.4 %ID
  tissue uptake dose at 24 h: 0.16 ± 0.07 %ID
[3]; PCa patient P2, SPECT/CT
  SUVmax: 0.78 (1.7 × 2)
[3]; PCa patient P3, SPECT/CT
  SUVmax: 1.21 (4.1 × 2.8)
[3]; PCa patient P4, SPECT/CT
  SUVmax: 1.14 (1.8 × 2.0)
[3]; PCa patient P5
  Ratio SUVmax in Tumor to Background: No accumulation
[3]; PCa patient P5, SPECT/CT
  SUVmax: No accumulation
[3]; PCa patient P6
  Ratio SUVmax in Tumor to Background: No accumulation
[3]; PCa patient P6, SPECT/CT
  SUVmax: No accumulation
[3]; PCa patients, SPECT/CT
  patients with uptake in tumors identified: four out of six
[3]; prostate tumors, 2 h after injection, Me [Q1–Q3]
  median activity accumulation (SUVmax): 1.18 [0.78–1.67]
